These results are taken from publication PMC8177864.

Data set [1] concerns the target T1, androgen receptor (rAR) (rat, UniProt P15207 1-902). Put plainly: EMSA. On the technique in general: In EMSA bound probe runs differently from free probe, usually more slowly.
Data set [2] has as its target T1, androgen receptor (rAR). Nature of the data set: EMSA. The source holds these as a separate data set.

Where two headings read alike, the source gives them in different places.

T1 sequence (P15207 whole entry S389L): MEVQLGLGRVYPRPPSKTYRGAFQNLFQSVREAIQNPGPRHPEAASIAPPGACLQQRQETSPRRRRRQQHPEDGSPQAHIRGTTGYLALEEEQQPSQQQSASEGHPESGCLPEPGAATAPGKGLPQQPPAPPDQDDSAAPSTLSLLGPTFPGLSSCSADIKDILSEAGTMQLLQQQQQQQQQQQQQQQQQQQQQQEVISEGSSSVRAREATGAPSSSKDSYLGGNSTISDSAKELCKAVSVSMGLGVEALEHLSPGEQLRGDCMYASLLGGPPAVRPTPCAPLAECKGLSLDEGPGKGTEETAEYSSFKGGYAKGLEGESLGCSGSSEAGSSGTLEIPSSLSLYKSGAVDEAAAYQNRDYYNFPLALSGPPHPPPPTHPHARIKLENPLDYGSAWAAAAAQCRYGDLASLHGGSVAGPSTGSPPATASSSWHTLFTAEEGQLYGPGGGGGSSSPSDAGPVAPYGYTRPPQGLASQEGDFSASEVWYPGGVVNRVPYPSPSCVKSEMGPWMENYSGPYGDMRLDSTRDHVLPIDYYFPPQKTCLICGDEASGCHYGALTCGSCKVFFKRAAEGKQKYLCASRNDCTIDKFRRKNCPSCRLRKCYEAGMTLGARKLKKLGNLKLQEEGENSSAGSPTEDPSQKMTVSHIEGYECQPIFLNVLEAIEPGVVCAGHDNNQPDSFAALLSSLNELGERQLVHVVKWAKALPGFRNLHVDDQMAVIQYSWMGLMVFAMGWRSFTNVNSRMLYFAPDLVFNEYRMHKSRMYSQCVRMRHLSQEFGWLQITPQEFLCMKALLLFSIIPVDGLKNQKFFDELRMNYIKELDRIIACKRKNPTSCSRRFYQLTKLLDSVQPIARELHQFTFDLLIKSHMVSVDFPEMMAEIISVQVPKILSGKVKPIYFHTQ

B1: -159/-144 HRE (dsDNA)
DNA 1: GGGCTTGGCATGTTCTGTTAGCACTCTTTTAGATT
DNA 2: AATCTAAAAGAGTGCTAACAGAACATGCCAAGCCC
As for B1, in the data set with androgen receptor (rAR) [1], the binding result is “no binding”.

B2: HRE consensus (dsDNA)
DNA 1: ACGGGTGGAACGCGGTGTTCTTTTGGCACG
DNA 2: CGTGCCAAAAGAACACCGCGTTCCACCCGT
In the case of B2, the binding result in the data set with androgen receptor (rAR) [2] is “binds”.

B3: -499/-484 HRE (dsDNA)
DNA 1: ATCTAGAATAATTGGTATTAGAACAGGCTGCTTAAAACAGTTAA
DNA 2: TTAACTGTTTTAAGCAGCCTGTTCTAATACCAATTATTCTAGAT
In the case of B3, the binding result with androgen receptor (rAR) [1] is recorded as “no binding”.
